Reference: patent publication US20230295310A1 (ABCELLERA BIOLOGICS, published 2023)
Where a chain is given by its changes, count along the chain named.

B1: mAb 205 (antibody, V domains shown)
VH: QVQLVESGGGVVQPGKSLRLSCAASGFTFSGYGMHWVRQAPGKGLEWVAIIYYNGKKEYYADSVKGRFTISRDNSKNTLYLQMNSLRAEDTAVYYCTRGEGYNWFDPWGQGTLVTVSS
VL: EIVMTQSPATLSVSPGERATLSCRASQSVSSNLAWYQQKPGQAPRLLIYGASTRATGIPARFSGSGSGTEFTLTISSLQSEDFAVYYCKQYNNWPLTFGGGTKVEIK
notes: VH and VL only
B2: mAb 213 (antibody, V domains shown)
VH: B1 VH with V2E, K16G, Y52W, K56R, E58T, D62E, Y80S, A88V, R98T, E100K
VL: B1 VL with K89Q, Y91F, N93A, V104M
notes: VH and VL only
B3: mAb 229 (antibody, V domains shown)
VH: B1 VH with V2E, K16R, G31S, E58K, Y59D, T97A, E100L
VL: EIVLTQSPDFQSVTPKEKVTITCRASQSIGSSLHWYQQKPDQSPKLLIKYASQSFSGVPSRFSGSGSGTDFTLTINSLEAEDAATYYCHQSSSLPYTFGQGTKLEIK
notes: VH and VL only
B4: mAb 65 (antibody, V domains shown)
VH: B1 VH with K16R, E46D, K56N, K57N, E58K, T97A, E100G, T115I
VL: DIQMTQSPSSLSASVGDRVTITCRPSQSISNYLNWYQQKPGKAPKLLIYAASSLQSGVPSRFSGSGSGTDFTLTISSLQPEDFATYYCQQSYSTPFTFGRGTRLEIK
notes: VH and VL only
B5: mAb 206 (antibody, V domains shown)
VH: QVQLVESGGGVVQPGRSLRLSCAASGFTFSGYGMHWVRQAPGKGLEWVAIIYYNGNNRKYADSVKGRFTISRDNSKNTVSLQMNSLRVEDTAIYYCTRGDGYNWFVTWGQGTLVTVSS
VL: B1 VL with Q37H, A60V, K89Q
notes: VH and VL only
B6: mAb 220 (antibody, V domains shown)
VH: QEQLVESGGGVVQPGGSLRLSCVASGFTFSGYGMHWVRQAPGKGLEWVAIIWYNGRKTYYAESVKGRFTISRDNSKNTLSLQMNSLRVEDTAVYYCTTGKGYNWFDPWGQGTLVTVSS
VL: B1 VL with K89Q, Y91F, N93A, V104M
notes: VH and VL only
B7: mAb 225 (antibody, V domains shown)
VH: B6 VH with V23A, T28K, S85R, T98A, K100Q
VL: B1 VL with K89Q, Y91F, N93A, V104M
notes: VH and VL only
B8: mAb 219 (antibody, V domains shown)
VH: B6 VH with V23A, T28M, A61T, T98A, K100Q
VL: B1 VL with K89Q, Y91F, N93A, V104M
notes: VH and VL only
B9: mAb 194 (antibody, V domains shown)
VH: B6 VH with V23A, T28I, T98A, K100Q
VL: B1 VL with K89Q, Y91F, N93A, V104M
notes: VH and VL only
B10: mAb 195 (antibody, V domains shown)
VH: B1 VH with V2E, P14S, K16R, A23V, T28K, N54D, K57N, E58K, E100A, P107S
VL: B1 VL with S30R, S31N, A51V, G57A, I58F, K89Q
notes: VH and VL only
B11: mAb 83 (antibody, V domains shown)
VH: B1 VH with K16R, E46D, K56N, K57N, E58K, T97A, E100G, T115I
VL: DIQMTQSPSSLSASVGDRVTITCRPSQIIINYLNWYQQKPGKAPKLLIYAASSLQSGVPSRFSGSGSGTDFTLTISSLQPEDFATYYCQQSYSTPFTFGRGTRLEIK
notes: VH and VL only
B12: mAb 81 (antibody, V domains shown)
VH: B1 VH with V5A, K16R, E46D, N54D, K57N, E58K, T97A, E100G
VL: B11 VL with I28T, I30S, K39D, F96I
notes: VH and VL only
B13: mAb 226 (antibody, V domains shown)
VH: B5 VH
VL: B1 VL with V29I, Q37H, A60V, V85L, K89Q
notes: VH and VL only
B14: mAb 215 (antibody, V domains shown)
VH: B5 VH with S25T
VL: B1 VL with Q37R, A60V, K89Q
notes: VH and VL only
B15: mAb 193 (antibody, V domains shown)
VH: B5 VH
VL: B1 VL with Q37H, A60V, E81D, K89Q
notes: VH and VL only
B16: mAb 196 (antibody, V domains shown)
VH: QEQLVESGGGVVQSGRSLRLSCVASGFKFSGYGMHWVRQAPGKGLEWVAIIYYDGKNKYYADSVKGRFTVSRDNSKNTLYLQMNSLRAEDTAVYYCTRGAGYNWFDSWGQGTLVTVSS
VL: B1 VL with S30R, S31N, A51V, G57A, I58F, K89Q
notes: VH and VL only
B17: mAb 218 (antibody, V domains shown)
VH: B5 VH with K65R
VL: B1 VL with Q37Y, A60V, K89Q
notes: VH and VL only
B18: mAb 216 (antibody, V domains shown)
VH: B1 VH with K16R
VL: B1 VL with N92K
notes: VH and VL only
B19: mAb 217 (antibody, V domains shown)
VH: B1 VH with K16R, S71F, L79V, N84K
VL: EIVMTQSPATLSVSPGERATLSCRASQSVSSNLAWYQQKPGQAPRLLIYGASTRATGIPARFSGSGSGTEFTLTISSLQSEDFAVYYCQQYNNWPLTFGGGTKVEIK
notes: VH and VL only
B20: mAb 86 (antibody, V domains shown)
VH: B1 VH with V5A, K16R, A23E, E46D, N54D, K57N, E58K, T97A, E100G
VL: B11 VL with I28T, I30S, N31K, S93I, F96I
notes: VH and VL only
B21: mAb 209 (antibody, V domains shown)
VH: B1 VH with K16R, I70V, T78M
VL: B1 VL with S28T, W94R
notes: VH and VL only
B22: mAb 222 (antibody, V domains shown)
VH: B1 VH with K16R, L79V
VL: B1 VL with E1K
notes: VH and VL only
B23: mAb 210 (antibody, V domains shown)
VH: B5 VH with V48L, I93M
VL: B1 VL with T20A, S30T, Q37H, A60V, K89Q, I106N
notes: VH and VL only
B24: mAb 221 (antibody, V domains shown)
VH: B6 VH with E2V, V23A, T98A, K100Q
VL: B1 VL with K89Q, Y91F, N93A, V104M
notes: VH and VL only
B25: mAb 224 (antibody, V domains shown)
VH: B1 VH with K16R, T78M, S85G, V93I
VL: B1 VL with A19T, S31N, K89Q
notes: VH and VL only
B26: mAb 85 (antibody, V domains shown)
VH: QVQLVQSGAEVKKPGASVKVSCKASGYTVTGYYMHWVRQAPGQGLEWMGWINPNSGGTNFAQNFQGRVTMTRDTSISTFYMDLNRLRSDDTAVYYCARGGAPVSYWFFDLWGRGTLVTVSS
VL: DIQMTQSPSSLSASVGDRVTITCRASQSISRYLNWYQQKPGKAPKVLIYNTSSLKSGVPSRFSGSGSGTDFTLTISSLQPEDFGTFYCQQSHSTPFTFGPGTKVDIK
notes: VH and VL only
B27: mAb 79 (antibody, V domains shown)
VH: B26 VH with T28I, Q43H, R87T
VL: B26 VL with S28N, S30N, R31S, Q37H, S53T, D70Y, G84A
notes: VH and VL only
B28: mAb 66 (antibody, V domains shown)
VH: B26 VH with N84S
VL: B26 VL with G84A, F86L
notes: VH and VL only
B29: mAb 212 (antibody, V domains shown)
VH: EVQLLESGGGLVQPGGSLRLSCAASGFTFSNYAMNWVRQAPGKGLEWVSAISGSRSNTYYADSVKGRFTISRDNSKNTLYLQMNSLRAEDTGVYYCAKGAYSKYPYYYYMDVWGKGTTVTVSS
VL: EIVMTQSPATLSLSPGERATLSCRASQSVSSSYLSWYQQKPGQAPRLLIYGASTRAIGIPARFSGSGSGTDFTLTISSLQAEDFAVYYCQQDDNLPWTFGQGTKVEIK
notes: VH and VL only
B30: mAb 214 (antibody, V domains shown)
VH: B29 VH with G92A
VL: B29 VL
notes: VH and VL only
B31: mAb 54 (antibody, V domains shown)
VH: EVQLEESGGGLVQPGGSLRLSCAASGFTFSRYSMNWVRQAPGKGLEWFSYISSSSRTIYYADSVKGRFTMSRDNAKNSLYLQMNSLRDEDTAVYFCARGDYYDSEGMDVWGKGTTVTVSS
VL: DIQMTQSPSTLSASVGDRVTITCRASQTITTWLAWYQQKPGKAPKLLIYKASTLESGVPSRFSGSGSGTEFTLTISSLQPDDFATYHCQQYKTFSYTFGQGTKLDIK
notes: VH and VL only

Experiments:
human CD3e/g = molecular target: T1, human CD3e/g (human, UniProt P07766 23-126; P09693 23-116); test: SPR (Carterra LSA), mAb on chip
T1 construct: Bought soluble protein; also called hCD3e/g; human CD3e/g (Acro CDD-C52W4)
Procedure, shortened: (§1)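 Purified mAbs amine-coupled (EDC/S-NHS) at 10 μg/mL in 10 mM NaOAc pH 4.25 onto an HC-30M chip, with benchmark and negative-control mAbs; analyte flowed over the array. Double-referenced sensorgrams fitted globally to a 1:1 Langmuir model for ka, kd and KD.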

human CD3e/d = molecular target: T2, human CD3e/d (human, UniProt P07766 23-126; P04234 22-105); test: SPR (Carterra LSA), mAb on chip
T2 construct: Bought soluble protein; also called hCD3e/d; human CD3/ed (Sino CT038-H2508H)
Procedure, shortened: as §1

T2 sequence (P07766 23-126, chain 1 of 2): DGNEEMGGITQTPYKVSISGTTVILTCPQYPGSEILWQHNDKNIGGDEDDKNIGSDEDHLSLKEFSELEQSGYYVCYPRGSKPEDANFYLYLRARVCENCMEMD
T2 sequence (P04234 22-105, chain 2 of 2): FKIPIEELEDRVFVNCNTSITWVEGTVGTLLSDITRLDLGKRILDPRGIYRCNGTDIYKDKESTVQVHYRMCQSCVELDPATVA
T1 sequence (P07766 23-126, chain 1 of 2): as the sequence (P07766 23-126, chain 1 of 2) above
T1 sequence (P09693 23-116, chain 2 of 2): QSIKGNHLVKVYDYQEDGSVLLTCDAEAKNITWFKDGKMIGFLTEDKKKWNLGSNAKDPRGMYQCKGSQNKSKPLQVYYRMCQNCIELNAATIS

| Binder | Kd (human CD3e/g) [nM] | Kd (human CD3e/d) [nM] |
| --- | --- | --- |
| B1 | 8.4 | 13 |
| B2 | 8.6 | 13 |
| B3 | 47 | 22 |
| B4 | 101 | 128 |
| B5 | 33 | 73 |
| B6 | 11 | 16 |
| B7 | 6.2 | 11 |
| B8 | 6.3 | 10 |
| B9 | 12 | 19 |
| B10 | 7.1 | 11 |
| B11 | 53.4 | 86.5 |
| B12 | 69.6 | 101 |
| B13 | 32 | 75 |
| B14 | 34 | 76 |
| B15 | 29 | 93 |
| B16 | 9.1 | 6.9 |

| Binder | Kd (human CD3e/g) [nM] | Kd (human CD3e/d) [nM] |
| --- | --- | --- |
| B17 | 34 | 62 |
| B18 | 6.8 | 9.3 |
| B19 | 17 | 38 |
| B20 | 91.9 | 82.1 |
| B21 | 5.7 | 5.5 |
| B22 | 8.2 | 16 |
| B23 | 59 | 120 |
| B24 | 25 | 38 |
| B25 | 18 | 39 |
| B26 | 102 | 117 |
| B27 | 74.8 | 124 |
| B28 | 125 | 149 |
| B29 | 22 | 11 |
| B30 | 25 | 13 |
| B31 | 83.2 | 553 |
